Test results reported in patent US8252338B2, “Synthetic LDL as targeted drug delivery vehicle” (The Regents of the University of California, priority 2005, dated 2012).

How the values were obtained:
SF-767 cells = test: Cell killing by MTT assay, SF-767 cells; format: cell-based, human; settings: concentrations up to 10 μM
Procedure: (§1) sLDL-PO was added to HeLa cells as shown in FIG. 16 and to SF-767 glioblastoma multiforme tumor cells (shown in FIG. 17) at concentrations between 0.05 and 50 μM and cell killing was determined by the MTT assay.
Cells were grown as in Example 3.

HeLa cells = test: Cell killing by MTT assay, HeLa cells; format: cell-based, human; settings: concentrations up to 50 μM
Procedure: as §1

[1] = Density distribution of lipidated 18-A chimera by sequential ultracentrifugation; format: physicochemical
Procedure: Studies were carried out to determine (1) whether the synthetic LDL represent a single population of particles and (2) whether the LDLR binding domain remains accessible after the peptide is associated with the lipid. To determine what types of synthetic LDL particles were generated, the lipidated 18-A chimera was subjected to sequential ultracentrifugation at density (d) 1.063 g/ml to isolate particles equivalent to, or less dense than, native LDL. Subsequently the solution was adjusted to d 1.21 g/ml to isolate particles in the d 1.063-1.21 g/ml range and those in the d>1.21 g/ml range. The latter particles are considered lipid-poor complexes while the d 1.063-1.21 particles are in the size and density range of high density lipoproteins (HDL). […] This was an unexpected finding but is very encouraging since smaller sized complexes will be better able to diffuse through the tumor mass than larger particles. The formation of small high density complexes is reproducible since it occurred with two separate batches of synthetic 18-A chimera complexes.
To determine the distribution of lipid complexes in various density classes, sequential ultracentrifugation techniques were employed (Lindgren, F. T. et al., In Blood Lipids and Lipoproteins: Quantification, Composition and Metabolism (Nelson, G. J., ed.) pp. 181-274, John Wiley, New York (1972)); this preparative procedure is routinely used in our laboratory and is the classical method for isolation of LDL and other lipoproteins. The first centrifugation was performed at d 1.006 g/ml to isolate large lipid complexes with little peptide; the second spin was done at 1.006-1.063 g/ml to isolate particles in the LDL.size and density range; the third spin at d 1.063-1.21 g/ml isolates particles in the HDL size and density range. The d>1.21 g/ml fraction was isolated to assess how much of the peptide is in the lipid-poor form. All ultracentrifugal isolations use the Beckman TL100 ultracentrifuge for rapid isolations (all fractions can be obtained within 24 hr). […]

[2] = Peptide association with lipid microemulsion after dialysis; format: physicochemical; settings: 1.27 mg/ml peptide; PL:TO:CO 3:2:1; after extensive dialysis against Tris-saline buffer
Procedure: The 18-A chimera was utilized for making core-containing synthetic LDL. The procedure reported by Baille et al. (Baillie, G. et al., J Lipid Res 43:69-73 (2002)) was used with modifications. Microemulsions were formed using egg yolk phospholipid (PL), triolein (TO) and cholesteryl olein (CO) (mole ratio of 3:2:1) and 20 μM butylhydroxytoluene (BHT); the microemulsions were extruded through an Avanti miniextruder first using 100 nm polycarbonate filters followed by 30 nm polycarbonate filters. The lipid emulsions were incubated with 1.27 mg/ml 18-A chimera and lipid association determined after extensive dialysis against Tris-saline buffer to remove uncomplexed peptide. Approximately 85% of the added synthetic peptide remained associated with the lipid emulsions.
Characterization: Composition of particles was determined using the Markwell modification of the Lowry protein assay and enzymatic colorimetric assays for PL, TO and CO (Wako Kits). Size was determined by column chromatography using a Superose 6 fast protein liquid chromatography (FPLC) column. Samples were run at a flow rate of 0.5 mL/min and absorbance read at 280 nm. Referring now to FIG. 4, the composition of the synthetic LDL was characterized as 32% peptide, 68% lipid. 82%±9% of peptide (n=11) remained bound after dialysis. […]

[3] = Phospholipid binding of peptides, PC-cholate micelles, cholate dialysis; format: physicochemical; settings: overnight incubation, dialysis (cutoff 10,000 MW)
Procedure: The ability of the peptides to bind phospholipids was tested first. Phospholipid binding was used as a rapid screen for a peptide's ability to bind to the surface of a synthetic LDL-like nanoparticle. To make phospholipid complexes with peptides, egg yolk phosphatidylcholine (PC) and the cholate dialysis method were used similarly to what was previously employed to make synthetic nascent HDL particles (Segrest, J. P. et al., J. Lipid Res 33:141-166 (1992)). The PC-cholate micelles were incubated with the peptide overnight and then extensively dialyzed (dialysis membrane cutoff, 10,000 MW) to remove cholate and unbound peptide. The percent bound peptide, i.e., peptide that remains associated with the lipid micelles, was determined for each peptide and was 8%, 15% and 33%, for B-peptide, 11-A chimera and 18-A chimera, respectively. The B-peptide had poor lipid binding ability while the 11-mer peptide has low lipid binding compared to the 18-A chimera.

CCCCCCCC/C=C\CCCCCCCC(=O)O[C@@H](C(=O)O[C@H]1C[C@@]2(O)[C@@H](OC(=O)c3ccccc3)[C@@H]3[C@]4(OC(C)=O)CO[C@@H]4C[C@H](O)[C@@]3(C)C(=O)[C@H](OC(C)=O)C(=C1C)C2(C)C)[C@@H](NC(=O)c1ccccc1)c1ccccc1 [Paclitaxel oleate]
SF-767 cell killing (SF-767 cells): ineffective | HeLa cell killing (HeLa cells): ineffective | initial PO added remained bound to the microemulsion after processing (PC:TO:CO:PO 3:2:1:0.5, centrifuged and dialyzed): 48±3% | increase in incorporation into microemulsion as compared to paclitaxel (equimolar amounts added to initial lipid mixture (FIG. 14A)): 4-5 fold | initial PO concentration at which incorporation appears to saturate (varying PO in the initial lipid mixture (FIG. 13)): around 0.33 mg/mL

DWLKAFYDKVAEKLKEAFRLTRKRGLKLA [18-A chimera]
density distribution (percent) of 18-A chimera ([1]; d 1.063-1.21 g/ml (size and density range of HDL, small lipid particles)): 58% | density distribution (percent) of 18-A chimera ([1]; d < 1.063 g/ml): 13% | density distribution (percent) of 18-A chimera ([1]; d > 1.21 g/ml (lipid-poor)): 29% | added synthetic peptide remaining associated with the lipid emulsions [2]: Approximately 85% | percent bound peptide (peptide that remains associated with the lipid micelles) [3]: 33%

PALEDLRQGLLPRLTRKRGLKL [11-A chimera]
percent bound peptide (peptide that remains associated with the lipid micelles) [3]: 15%

YKLEGTTRLTRKRGLKLATALS [B-peptide, reference compound]
percent bound peptide (peptide that remains associated with the lipid micelles) [3]: 8%
